Here are results for 53 substances from US20040037843A1.

As usually defined, the IC50 is the concentration at which inhibition is half-maximal.

The first assay concerns the target HLA-A*2401 (human).
Assay: not given
The following applies: scale: ratio.
As for “PSA (Prostate Specific Antigen) peptide, position 2, 9 amino acids”, the relative binding ratio (A*2401) turned out to be 2.1.

With “PSA (Prostate Specific Antigen) peptide, position 2, 10 amino acids”, the relative binding ratio (A*2401) came to 0.0062.

As to “PSA (Prostate Specific Antigen) peptide, position 9, 9 amino acids”, the relative binding ratio (A*2401) worked out at 0.11.

As for “PSA (Prostate Specific Antigen) peptide, position 9, 10 amino acids”, the relative binding ratio (A*2401) stood at 0.36. As for “PSM (Prostate Specific Membrane Antigen) peptide, position 624, 10 amino acids”, the relative binding ratio (A*2401) worked out at 3.2.

The target in another assay is HLA-A*0101 (human).
Assay: not given
Conditions: not given
Turning to “PSM peptide, position 196, 10 amino acids”, the relative binding ratio (IC50 of standard peptide / IC50 of test peptide) turned out to be 0.016.

A further assay concerns the target HLA-A*2401 (human).
Assay: not given
Conditions: not given
In the case of “PSA peptide, position 91, 9 amino acids (A24 supermotif)”, the relative binding ratio (IC50 of standard peptide / IC50 of test peptide) amounted to 0.0007. As to “PSA peptide, position 224, 9 amino acids (A24 supermotif)”, the relative binding ratio (IC50 of standard peptide / IC50 of test peptide) worked out at 0.0001.

The target in a further assay is HLA-A*2401 (purified HLA class I molecule) (human). The experiment in a line: competition with 125I-labelled standard peptide for purified HLA, gel filtration.
Conditions: not given
As to “PAP position 297, 10 amino acids (peptide)”, the relative binding ratio (IC50 of standard peptide / IC50 of test peptide) is 0.0001. As for PSA position 2, 9 amino acids (peptide), the relative binding ratio (IC50 of standard peptide / IC50 of test peptide) was 2.1. As for “PSA position 2, 10 amino acids (peptide)”, the relative binding ratio (IC50 of standard peptide / IC50 of test peptide) was 0.0062.

On to PSA position 9, 9 amino acids (peptide), for which the relative binding ratio (IC50 of standard peptide / IC50 of test peptide) is 0.11. Same read-out and setting: the value for “PSA position 9, 10 amino acids (peptide)” was 0.36. As to “PSA position 54, 10 amino acids (peptide)”, the relative binding ratio (IC50 of standard peptide / IC50 of test peptide) came out at 0.0007. On the same count and under the same terms, the value for “PSA position 96, 11 amino acids (peptide)” was 0.12. On to “PSA position 224, 9 amino acids (peptide)”, for which the relative binding ratio (IC50 of standard peptide / IC50 of test peptide) worked out at 0.0001. For “PSM position 74, 10 amino acids (peptide)”, the relative binding ratio (IC50 of standard peptide / IC50 of test peptide) was 0.23.

For the substance “PSM position 178, 9 amino acids (peptide)”, the relative binding ratio (IC50 of standard peptide / IC50 of test peptide) came to 0.77. As to “PSM position 227, 9 amino acids (peptide)”, the relative binding ratio (IC50 of standard peptide / IC50 of test peptide) is 0.44. Take “PSM position 624, 10 amino acids (peptide)”: the relative binding ratio (IC50 of standard peptide / IC50 of test peptide) amounted to 3.2. Regarding “PSM position 638, 9 amino acids (peptide)”, the relative binding ratio (IC50 of standard peptide / IC50 of test peptide) is 0.0001. In the case of “PSM position 668, 9 amino acids (peptide)”, the relative binding ratio (IC50 of standard peptide / IC50 of test peptide) turned out to be 0.0075.

Another assay has as its target HLA-A*6802 (human). The description is as above.
Conditions: not given
For “PSM position 168, 10 amino acids (peptide)”, the relative binding ratio was found to be 0.0013.

Another assay concerns the target HLA-A*2401 (human).
Assay: not given
Conditions: not given
The source holds these as a separate data set.
Turning to “PSA position 190, 9 amino acids (…) (peptide)”, the relative binding ratio (IC50 of standard peptide / IC50 of test peptide) stood at 0.031. The same measure, in the same setting: the value for “PSM position 409, 10 amino acids (…) (peptide)” was 0.054.

In a further assay the target is HLA-A*2401 (human). As to the kind of experiment: competition with 125I-labelled probe peptide for purified HLA, gel filtration.
Conditions: not given
On the technique in general: In gel filtration, larger molecules generally elute earlier.
In the case of “PAP position 70, 10 amino acids (peptide)”, the relative binding ratio (IC50 of standard peptide / IC50 of test peptide) turned out to be 0.0022. Consider “PSA position 96, 11 amino acids (peptide)”, for which the relative binding ratio (IC50 of standard peptide / IC50 of test peptide) was 0.12. For “PSM position 74, 10 amino acids (peptide)”, the relative binding ratio (IC50 of standard peptide / IC50 of test peptide) was determined as 0.23. “PSM position 227, 9 amino acids (peptide)”: the relative binding ratio (IC50 of standard peptide / IC50 of test peptide) is 0.44.

With “PSM position 606, 9 amino acids (peptide)”, the relative binding ratio (IC50 of standard peptide / IC50 of test peptide) was 12. Consider “PSM position 668, 9 amino acids (peptide)”, for which the relative binding ratio (IC50 of standard peptide / IC50 of test peptide) was determined as 0.0075.

A further assay has as its target HLA-A*2401 (purified HLA class I molecule) (human). As to the kind of experiment: competition with 125I-labelled probe peptide on purified HLA, gel filtration.
Conditions: not given
On to “PAP peptide, position 163, 10 amino acids”, for which the relative binding ratio (IC50 of standard peptide / IC50 of test peptide) was determined as 0.0001. Turning to “PAP peptide, position 183, 9 amino acids”, the relative binding ratio (IC50 of standard peptide / IC50 of test peptide) is 0.11. As to “PAP peptide, position 297, 10 amino acids”, the relative binding ratio (IC50 of standard peptide / IC50 of test peptide) amounted to 0.0001. For “PAP peptide, position 309, 10 amino acids”, the relative binding ratio (IC50 of standard peptide / IC50 of test peptide) is 0.024. Take “PAP peptide, position 355, 10 amino acids”: the relative binding ratio (IC50 of standard peptide / IC50 of test peptide) is 0.0037.

In the case of “PSA peptide, position 54, 10 amino acids”, the relative binding ratio (IC50 of standard peptide / IC50 of test peptide) is 0.0007.

“PSM peptide, position 178, 9 amino acids”: the relative binding ratio (IC50 of standard peptide / IC50 of test peptide) came to 0.77. For the substance “PSM peptide, position 638, 9 amino acids”, the relative binding ratio (IC50 of standard peptide / IC50 of test peptide) amounted to 0.0001.

In a further assay the target is HLA-A*6802 (human). The experiment in a line: competition with 125I-labelled standard peptide for purified HLA.
Conditions: not given
peptide 1126.01, PSM.663: the IC50 is 976 nM.

peptide 1129.10, PSM.288 showed an IC50 of 1540 nM.

The target of a further assay is HLA-A*0206 (human). The assay is described as above.
Conditions: not given
peptide 1419.24, PSA.166.V10 registered an IC50 of 502 nM.

In a further assay the target is HLA-A*0101 (purified HLA class I molecule) (human).
Assay: not given
Conditions: not given
For the substance “PSM peptide, position 196, 10 amino acids (A1 supermotif)”, the relative binding ratio (IC50 of standard peptide / IC50 of test peptide) worked out at 0.016.

Another assay concerns the target HLA-A*2401 (human). As to the kind of experiment: competition with 125I-labelled probe peptide for purified HLA, gel filtration.
Conditions: not given
This is another data set of the same source.
For the substance “PSA position 98, 9 amino acids (peptide)”, the relative binding ratio (IC50 of standard peptide / IC50 of test peptide) came to 0.0001. Take “PSA position 190, 9 amino acids (peptide)”: the relative binding ratio (IC50 of standard peptide / IC50 of test peptide) worked out at 0.031. On the same count and under the same terms, the value for “PSM position 31, 9 amino acids (printed as 8 in Table XVIII) (peptide)” was 0.019. Same read-out and setting: then “PSM position 32, 10 amino acids (peptide)”, with 0.0026; and “PSM position 409, 10 amino acids (peptide)”, with 0.054; and “PSM position 448, 9 amino acids (peptide)”, with 0.019. The same measure, in the same setting: then “PSM position 565, 10 amino acids (peptide)”, with 1.1. Take “PSM position 582, 10 amino acids (peptide)”: the relative binding ratio (IC50 of standard peptide / IC50 of test peptide) came out at 0.0002. On to “PSM position 606, 9 amino acids (peptide)”, for which the relative binding ratio (IC50 of standard peptide / IC50 of test peptide) worked out at 12. In the case of “PSM position 621, 9 amino acids (peptide)”, the relative binding ratio (IC50 of standard peptide / IC50 of test peptide) was determined as 0.001.

A further assay has as its target HLA-A*2401 (purified HLA class I molecule) (human).
Assay: not given
Conditions: not given
With “PSM (prostate specific membrane antigen) peptide, position 31, 9 amino acids”, the relative binding ratio (IC50 of standard peptide / IC50 of test peptide) amounted to 0.019. Turning to “PSM (prostate specific membrane antigen) peptide, position 32, 10 amino acids”, the relative binding ratio (IC50 of standard peptide / IC50 of test peptide) was found to be 0.0026. On to “PSM (prostate specific membrane antigen) peptide, position 565, 10 amino acids”, for which the relative binding ratio (IC50 of standard peptide / IC50 of test peptide) came out at 1.1. Turning to “PSM (prostate specific membrane antigen) peptide, position 582, 10 amino acids”, the relative binding ratio (IC50 of standard peptide / IC50 of test peptide) was 0.0002.

Turning to “PSM (prostate specific membrane antigen) peptide, position 621, 9 amino acids (from UniProt Q04609 621-629)”, the relative binding ratio (IC50 of standard peptide / IC50 of test peptide) amounted to 0.001.
